Experimental data taken from patent US20160068860A1, “TRANSGENIC PLANTS” (CONSEJO SUPERIOR DE INVESTIGACIONES CIENTIFICAS (CSIC), priority 2013, published 2016).
Substitutions are numbered along the chain they refer to. Names may count otherwise.

B1: PYL4H82R V97A (AtPYL H82 and V97A) (receptor)
chain: MLAVHRPSSAVSDGDSVQIPMMIASFQKRFPSLSRDSTAARFHTHEVGPNQCCSAVIQEISAPISTVWSVVRRFDNPQAYKRFLKSCSVIGGDGDNAGSLRQVHVVSGLPAASSTERLDILDDERHVISFSVVGGDHRLSNYRSVTTLHPSPISGTVVVESYVVDVPPGNTKEETCDFVDVIVRCNLQSLAKIAENTAAESKKKMSL
notes: also called PYL4H82R (found combined with V97A)
B2: PYL4A194T: AtPYL4 ABA receptor mutant polypeptide with A194T substitution (SEQ ID NO. 60; nucleic acid SEQ ID NO: 55); also over-expressed in plants (protein, listed as Arabidopsis thaliana)
chain: B1 chain with R82H, A97V, A194T

Legend:
[1] = tested on: PP2CA; assay: In vitro phosphatase activity assay with pNPP substrate, PP2CA; type: biochemical, Arabidopsis; conditions: absence of ABA
Procedure: (§1) Phosphatase activity was measured using as a substrate either pNPP or phosphorylated ΔC-ABF2, ΔC-ABI5 and SLAC11-186 proteins. For the pNPP substrate, assays were performed in a 100 μl solution containing 25 mM Tris-HCl pH 7.5, 2 mM MnCl2 and 5 mM pNPP. Assays contained 2 μM phosphatase (PP2CA or HAB1), 4 μM receptor and the indicated concentrations of ABA. Phosphatase activity was recorded with a ViktorX5 reader at 405 nm every 60 seconds over 30 minutes and the activity obtained after 30 minutes is indicated in the graphics. In order to obtain phosphorylated ΔCABF2, ΔC-ABI5 and SLAC11-186 proteins, OST1 phosphorylation assays were done basically as described previously (Dupeux et al., 2011 b). ΔC-ABF2 and SLAC11-186 N-terminal fragments were prepared as described (Antoni et al., 2012; Vahisalu et al., 2010). ΔC-ABI5 recombinant protein (amino acid residues 1-200, containing the C1, C2 and C3 target sites of ABA-activated SnRK2s) was expressed in the pETM11 vector as described above. The reaction mixture containing the OST1 kinase and either ΔCABF2, ΔC-ABI5 or SLAC11-186 recombinant proteins were incubated for 50 min at room temperature in 30 μl of kinase buffer: 20 mM Tris-HCl pH 7.8, 20 mM MgCl2, 2 mM MnCl2, and 3.5 μCi of γ-32ATP (3000 Ci/mmol). Thus, OST1 was autophosphorylated and in turn it phosphorylated ΔC-ABF2, ΔC-ABI5 and SLAC11-186 proteins. Next, they were used as substrates of PP2CA that was preincubated (or not) for 10 with PYL4 or PYL4A194T (1:10 phosphatase:receptor ratio) either in the absence or presence of 30 μM ABA. The reaction was stopped by adding Laemmli buffer and the proteins were separated by SDS-PAGE using an 8% acrylamide gel and transferred to an Immobilon-P membrane (Millipore). Radioactivity was detected and quantified using a Phosphorimage system (FLA5100, Fujifilm). After scanning, the same membrane was used for Ponceau staining. The data presented are averages of at least three independent experiments.

[2] = biological target: T1, PP2CA (Arabidopsis thaliana, UniProt O80920+P49598, A194T); assay: as above; type: biochemical; design: made in house; host or cells: E. coli BL21 (DE3); conditions: for inhibitory effect on the activity of PP2CA with respect to PYL4: absence of ABA, 2 μM phosphatase, 4 μM receptor
Procedure: as §1

[3] = biological target: T1, PP2CA; assay: BiFC assay with PP2CA in N. benthamiana leaves; type: cell-based; design: expressed in transfected cells; host or cells: N. benthamiana leaf epidermal cells (Agroinfiltration); conditions: no exogenous ABA; compared to PYL4
Procedure: (§2) Experiments were performed basically as described by Voinnet et al., (2003). The different binary vectors described above where introduced into Agrobacterium tumefaciens C58C1 (pGV2260) (Deblaere et al., 1985) by electroporation and transformed cells were selected in LB plates supplemented with kanamycin (50 μg/ml). Then, they were grown in liquid LB medium to late exponential phase and cells were harvested by centrifugation and resuspended in 10 mM morpholinoethanesulphonic (MES) acid-KOH pH 5.6 containing 10 mM MgCl2 and […] acetosyringone to an OD600 nm of 1. These cells were mixed with an equal volume of Agrobacterium C58C1 (pCH32 35S:p19) expressing the silencing suppressor p19 of tomato bushy stunt virus (Voinnet et al., 2003) so that the final density of Agrobacterium solution was about 1. Bacteria were incubated for 3 h at room temperature and then injected into young fully expanded leaves of 4-week-old N. benthamiana plants. Leaves were examined after 3-4 days under a Leica TCS-SL confocal microscope and laser scanning confocal imaging system. Quantification of fluorescent protein signal was done as described (Gampala et al., 2007) using the National Institutes of Health (NIH) Image software ImageJ v1.37. […]

[4] = tested on: HAB1; assay: BiFC assay with HAB1 in N. benthamiana leaves; type: cell-based; conditions: no exogenous ABA
Procedure: as §2

T1 sequence (P49598 whole entry): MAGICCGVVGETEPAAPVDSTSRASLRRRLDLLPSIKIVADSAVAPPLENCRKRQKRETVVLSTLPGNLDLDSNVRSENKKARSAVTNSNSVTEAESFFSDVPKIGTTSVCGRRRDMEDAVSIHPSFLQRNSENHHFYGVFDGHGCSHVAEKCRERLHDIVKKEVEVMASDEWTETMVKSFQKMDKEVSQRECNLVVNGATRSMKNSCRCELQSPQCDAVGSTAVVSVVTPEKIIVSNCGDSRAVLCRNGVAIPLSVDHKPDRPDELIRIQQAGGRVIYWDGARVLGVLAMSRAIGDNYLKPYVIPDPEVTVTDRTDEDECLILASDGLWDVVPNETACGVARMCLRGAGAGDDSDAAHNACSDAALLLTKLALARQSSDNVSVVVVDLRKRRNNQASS
T1 sequence (O80920 whole entry A194T): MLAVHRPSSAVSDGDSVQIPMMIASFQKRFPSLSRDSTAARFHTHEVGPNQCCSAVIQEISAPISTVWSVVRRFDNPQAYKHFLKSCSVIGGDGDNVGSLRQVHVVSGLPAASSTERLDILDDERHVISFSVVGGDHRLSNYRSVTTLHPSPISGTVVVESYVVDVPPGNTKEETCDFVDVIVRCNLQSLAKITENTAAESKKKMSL

Row | Molecule | effect on PP2CA activity [1] | inhibitory effect on the activity of PP2CA with respect to PYL4 [2] | inhibitory effect on the activity of PP2CA with respect to PYL4 ([2]; listed as PYL4^A194T) [%] | inhibition of PP2CA ([2]; presence of 1 μM ABA) | relative fluorescence emission of interaction with PP2CA [3] | interaction with HAB1 (BiFC), PYL4 versus PYL4A194T [4]
1 | B1 | did not affect PP2CA activity | – | – | – | – | –
2 | B2 | – | around 20% | 20 | higher inhibition of PP2CA than PYL4 | higher | did not differ significantly
